From US20240116985A1 (published 2024)
Starred links: 1 amine or outer side, 2 acyl side, 3 side chain; linkers in the order of their positions; H or OH if unused. Positions of bridges follow the written chain, without caps; N, C: chain ends. Non-standard residues stand in square brackets, D forms with d. Primed or numbered codes have the meaning given here. *: point of attachment. PyrS2(3) = (S)-3-amino-1-((pent-4-en-1-yloxy)carbonyl)pyrrolidine-3-carboxylic acid, stapling residue, C=CCCCOC(=O)N1CC[C@@](N[*:1])(C(=O)[*:2])C1; B5(23) = 2-amino-2-(pent-4-en-1-yl)hept-6-enoic acid (2,2-bis(4-pentenyl)glycine), stitching residue, C=CCCCC(CCCC=C)(N[*:1])C(=O)[*:2]; PyrS2 = (S)-3-amino-1-((pent-4-en-1-yloxy)carbonyl)pyrrolidine-3-carboxylic acid, C=CCCCOC(=O)N1CC[C@@](N[*:1])(C(=O)[*:2])C1; PyrS3 = (S)-3-amino-1-((hex-5-en-1-yloxy)carbonyl)pyrrolidine-3-carboxylic acid, C=CCCCCOC(=O)N1CC[C@@](N[*:1])(C(=O)[*:2])C1; PyrS1 = (S)-3-amino-1-((but-3-en-1-yloxy)carbonyl)pyrrolidine-3-carboxylic acid, C=CCCOC(=O)N1CC[C@@](N[*:1])(C(=O)[*:2])C1; PyrS = (S)-1-((allyloxy)carbonyl)-3-aminopyrrolidine-3-carboxylic acid, C=CCOC(=O)N1CC[C@@](N[*:1])(C(=O)[*:2])C1; B5(19) = 2-amino-2-(pent-4-en-1-yl)hept-6-enoic acid (bis(4-pentenyl)glycine), C=CCCCC(CCCC=C)(N[*:1])C(=O)[*:2]; B5(7) = 2-amino-2-(pent-4-en-1-yl)hept-6-enoic acid, two olefinic side chains, C=CCCCC(CCCC=C)(N[*:1])C(=O)[*:2]; HypEs5 = (2R,4S)-4-(pent-4-enoyloxy)pyrrolidine-2-carboxylic acid, C=CCCC(=O)O[C@H]1C[C@H](C(=O)[*:2])N([*:1])C1; GA = (S)-2-amino-3-((carboxymethyl)amino)propanoic acid, O=C([C@H](CNCC(=O)[*:3])N[*:1])[*:2]; Phe(4-tetrazol-5-yl) = N[C@@H](Cc1ccc(-c2nnn[nH]2)cc1)C(=O)O; Phe(2-Cl) = N[C@@H](Cc1ccccc1Cl)C(=O)O; Bta = N[C@@H](Cc1csc2ccccc12)C(=O)O; αAllylPro = C=CC[C@@]1(C(=O)O)CCCN1; tBuAla = CC(C)(C)C[C@H](N)C(=O)O; 3Thi = N[C@@H](Cc1ccsc1)C(=O)O; Pfb = not defined here; Ms = CS(=O)(=O)*

T1: B-cat-Halo (UniProt P35222 1-781)
T1 sequence (looked up): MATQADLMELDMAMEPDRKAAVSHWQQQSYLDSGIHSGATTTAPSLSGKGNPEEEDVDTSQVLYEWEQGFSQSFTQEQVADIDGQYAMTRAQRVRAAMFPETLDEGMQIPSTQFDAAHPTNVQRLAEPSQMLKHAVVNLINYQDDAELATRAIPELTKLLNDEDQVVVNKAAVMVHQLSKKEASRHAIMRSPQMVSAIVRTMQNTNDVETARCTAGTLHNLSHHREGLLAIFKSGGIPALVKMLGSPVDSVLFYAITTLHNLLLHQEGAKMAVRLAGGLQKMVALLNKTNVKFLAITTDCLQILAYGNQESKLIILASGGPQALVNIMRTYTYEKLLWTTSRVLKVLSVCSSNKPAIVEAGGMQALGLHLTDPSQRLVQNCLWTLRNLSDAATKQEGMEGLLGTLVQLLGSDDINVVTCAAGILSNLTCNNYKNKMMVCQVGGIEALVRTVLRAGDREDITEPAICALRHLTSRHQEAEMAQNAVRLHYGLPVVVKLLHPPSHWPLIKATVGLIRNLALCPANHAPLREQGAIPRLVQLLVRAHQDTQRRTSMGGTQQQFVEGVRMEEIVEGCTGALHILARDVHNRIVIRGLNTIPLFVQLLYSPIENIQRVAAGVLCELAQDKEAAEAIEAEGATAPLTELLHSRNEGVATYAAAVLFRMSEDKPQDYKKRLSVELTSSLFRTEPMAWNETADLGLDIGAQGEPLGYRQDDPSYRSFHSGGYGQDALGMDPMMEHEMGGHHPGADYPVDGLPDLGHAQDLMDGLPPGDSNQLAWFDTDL

T2: B-cat-Halo (beta-catenin HaloTag construct expressed in HEK293 cells) (UniProt P35222 1-781)
T2 sequence (looked up): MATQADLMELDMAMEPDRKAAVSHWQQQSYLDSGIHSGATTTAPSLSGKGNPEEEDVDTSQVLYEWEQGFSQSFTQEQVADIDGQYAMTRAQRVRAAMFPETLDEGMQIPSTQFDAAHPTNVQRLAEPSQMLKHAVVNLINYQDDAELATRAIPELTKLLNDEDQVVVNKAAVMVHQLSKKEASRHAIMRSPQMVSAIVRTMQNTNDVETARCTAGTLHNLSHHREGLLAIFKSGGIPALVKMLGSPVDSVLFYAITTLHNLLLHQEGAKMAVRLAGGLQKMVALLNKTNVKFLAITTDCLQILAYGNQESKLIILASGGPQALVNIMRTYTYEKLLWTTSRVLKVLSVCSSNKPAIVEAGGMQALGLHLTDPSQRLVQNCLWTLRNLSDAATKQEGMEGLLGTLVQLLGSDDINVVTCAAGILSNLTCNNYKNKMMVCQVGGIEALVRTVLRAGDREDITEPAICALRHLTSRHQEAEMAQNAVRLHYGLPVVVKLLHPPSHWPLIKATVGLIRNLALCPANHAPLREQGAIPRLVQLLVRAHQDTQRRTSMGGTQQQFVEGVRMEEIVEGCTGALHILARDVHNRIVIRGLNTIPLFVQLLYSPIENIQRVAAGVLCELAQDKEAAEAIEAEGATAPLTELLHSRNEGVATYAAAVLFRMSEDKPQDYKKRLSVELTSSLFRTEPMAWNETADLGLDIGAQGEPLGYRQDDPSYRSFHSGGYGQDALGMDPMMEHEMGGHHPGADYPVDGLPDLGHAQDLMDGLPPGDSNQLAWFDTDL

T3: B-cat-Halo (NanoBRET construct expressed in HEK293 cells) (UniProt P35222 1-781, HaloTag NanoBRET 618 Ligand bound in the assay)
T3 sequence (looked up): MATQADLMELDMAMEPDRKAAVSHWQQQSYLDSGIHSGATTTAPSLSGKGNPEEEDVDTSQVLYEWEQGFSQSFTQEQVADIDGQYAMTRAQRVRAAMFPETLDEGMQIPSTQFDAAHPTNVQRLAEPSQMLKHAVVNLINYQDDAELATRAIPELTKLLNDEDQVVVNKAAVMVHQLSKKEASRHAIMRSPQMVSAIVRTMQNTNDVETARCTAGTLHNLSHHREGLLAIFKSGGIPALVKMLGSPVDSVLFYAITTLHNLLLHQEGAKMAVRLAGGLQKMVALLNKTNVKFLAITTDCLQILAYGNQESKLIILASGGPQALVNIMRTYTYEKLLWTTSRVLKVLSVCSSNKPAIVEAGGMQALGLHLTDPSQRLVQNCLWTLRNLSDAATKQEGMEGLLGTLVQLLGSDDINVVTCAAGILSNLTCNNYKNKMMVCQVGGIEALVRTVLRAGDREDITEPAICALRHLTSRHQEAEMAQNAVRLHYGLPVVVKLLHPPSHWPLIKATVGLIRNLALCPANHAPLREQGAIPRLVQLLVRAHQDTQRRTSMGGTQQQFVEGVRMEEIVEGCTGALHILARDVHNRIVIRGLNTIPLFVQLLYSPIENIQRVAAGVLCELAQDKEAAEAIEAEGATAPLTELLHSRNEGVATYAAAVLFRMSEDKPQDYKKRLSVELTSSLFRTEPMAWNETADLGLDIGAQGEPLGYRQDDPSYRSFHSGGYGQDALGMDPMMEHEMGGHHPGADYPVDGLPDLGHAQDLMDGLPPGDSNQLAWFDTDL


molecular target: T1, B-cat-Halo; assay: cell-based or functional assay

Binder	NanoBRET Abs IC50 [µM]
Ac-[αAllylPro]DA[B5(23)]NNAAFN[PyrS2][3Thi][Bta]Q-NH2 (staple 1-4, 4-11) [I-1556]	> 20
Ac-[αAllylPro]D[tBuAla][B5(23)]NNAAFL[PyrS2][3Thi][Bta]Q-NH2 (staple 1-4, 4-11) [I-1557]	> 20
Ac-[αAllylPro]D[tBuAla][B5(23)]NTAAFN[PyrS2][3Thi][Bta]Q-NH2 (staple 1-4, 4-11; also: earlier-eluting HPLC staple isomer) [I-1564]	> 20
Ac-[αAllylPro]D[tBuAla][B5(23)]NTAAFN[PyrS2][3Thi][Bta]Q-NH2 (staple 1-4, 4-11; not fully specified; printed as Ac-PL3-Asp-Npg-B5-Asn-Thr-Ala-Ala-Phe-Asn-PyrS2-3Thi-BztA-Gln-NH2) [I-1565]	> 20
Ac-[αAllylPro]D[tBuAla][B5(23)]NQAAFN[PyrS2][3Thi][Bta]Q-NH2 (staple 1-4, 4-11; also: earlier-eluting HPLC staple isomer) [I-1566]	> 20
Ac-[αAllylPro]D[tBuAla][B5(23)]NQAAFN[PyrS2][3Thi][Bta]Q-NH2 (staple 1-4, 4-11; not fully specified; printed as Ac-PL3-Asp-Npg-B5-Asn-Gln-Ala-Ala-Phe-Asn-PyrS2-3Thi-BztA-Gln-NH2) [I-1567]	> 20
Ac-[αAllylPro]D[tBuAla][B5(23)]D[GA](Pfb)AAFN[PyrS2][Phe(2-Cl)][Bta]Q-NH2 (staple 1-4, 4-11; reading uncertain; also: printed as Ac-PL3-Asp-Npg-B5-Asp-[Pfb]GA-Ala-Ala-Phe-Asn-PyrS2-2C1F-BztA-Gln-NH2) [I-1571]	11.7
Ac-[αAllylPro]D[tBuAla][B5(23)]D[GA]AAFN[PyrS2][Phe(2-Cl)][Bta]Q-NH2 (staple 1-4, 4-11) [I-1572]	> 20
Ac-[HypEs5]D[tBuAla][B5(23)]DDAAFN[PyrS2][3Thi][Bta]Q-NH2 (staple 1-4, 4-11) [I-1573]	> 20
Ms-[HypEs5]D[tBuAla][B5(23)]DDAAFN[PyrS2][3Thi][Bta]Q-NH2 (staple 1-4, 4-11; not fully specified; printed as MeSO2-HypEs5-Asp-Npg-B5-Asp-Asp-Ala-Ala-Phe-Asn-PyrS2-3Thi-BztA-Gln-NH2) [I-1574]	> 20
Ac-[αAllylPro]D[tBuAla][B5(23)]D[3TzF]AAFN[PyrS2(3)][3Thi][Bta]Q-NH2 (staple 1-4, 4-11) [I-1578]	> 20
Ac-[αAllylPro]D[tBuAla][B5(23)]D[Phe(4-tetrazol-5-yl)]AAFN[PyrS2(3)][3Thi][Bta]Q-NH2 (staple 1-4, 4-11) [I-1579]	> 20

molecular target: T2, B-cat-Halo (beta-catenin HaloTag …); assay: cell-based or functional assay

Binder	NanoBRET Abs IC50 [µM]
Ac-[αAllylPro]D[tBuAla][B5(19)]DDAAFL[PyrS][3Thi][Bta]Q-NH2 (staple 1-4, 4-11) [I-1818]	> 20
Ac-[αAllylPro]D[tBuAla][B5(19)]DDAAFN[PyrS1][3Thi][Bta]Q-NH2 (staple 1-4, 4-11; also: staple olefins reduced to CH2-CH2) [I-1821]	> 20
Ac-[αAllylPro]D[tBuAla][B5(19)]DDAAFL[PyrS1][3Thi][Bta]Q-NH2 (staple 1-4, 4-11; also: staple olefins reduced to CH2-CH2) [I-1822]	> 20

molecular target: T3, B-cat-Halo (NanoBRET construct …); assay: cell-based or functional assay

Binder	NanoBRET Abs IC50 [µM]
Ac-[αAllylPro]D[tBuAla][B5(7)]DDAAFN[PyrS3][3Thi][Bta]Q-NH2 (staple 1-4, 4-11) [I-767]	37.2
